Assay results as given in patent publication EP3689907A1.

B1: PRO592 (scFv)
scFv: DIQMTQSPSSLSASVGDRVTITCQASESIYRYLSWYQQKPGKAPKLLIYLASTLTSGVPSRFSGSGSGTDFTLTISSLQPEDFATYYCQSNFGTASTTYYNTFGGGTKLTVLGGGGGSGGGGSGGGGSGGGGSEVQLVESGGGLVQPGGSLTLSCAASGFSFSGFYYMCWVRQAPGKGLEWIGCIDTGDGTTYYASWAKGRFTISRDNSKNTVYLQMNSLRAEDTAVYYCARDAAYGGYAYPAHGMDLWGPGTLVTVSS
B2: PRO571 (scFv)
scFv: DIQMTQSPSSLSASVGDRVTITCQASESIYRYLSWYQQKPGKAPKLLIYLASTLTSGVPSRFSGSGSGTDFTLTISSLQPEDFATYYCQSNFGTASTTYYNTFGGGTKLTVLGGGGGSGGGGSGGGGSGGGGSEVQLVESGGGLVQPGGSLRLSCAASGFSFSGFYYMCWVRQAPGKGLEWIGCIDTGDGTTYYASWAKGRFTISRDNSKNTVYLQMNSLRAEDTAVYYCARDAAYGGYAYPAHGMDLWGQGTLVTVSS

Legend:
[1] = molecular target: human IL-17A (human) (UniProt Q16552); experiment: cell-based or functional assay
[2] = molecular target: human IL-17A (human) (UniProt Q16552); experiment: SPR (Biacore T200), direct setup: IL-17A amine-coupled to CM5 chip, scFv as analyte
[3] = molecular target: human IL-17A (human) (UniProt Q16552); experiment: IL-17A/IL-17RA competitive ELISA: biotinylated hIL-17A preincubated with scFv, binding to coated hIL-17RA
[4] = molecular target: human IL-17A (human) (UniProt Q16552); experiment: SPR (Biacore T200), capture setup: biotinylated human IL-17A captured with Biotin-CAPture kit, scFv as analyte
[5] = molecular target: human IL-17A (human) (UniProt Q16552); experiment: IL-17A/IL-17RA competitive ELISA: biotinylated hIL-17A preincubated with scFv, binding to coated hIL-17RA; reference secukinumab

Row | Binder | Neutralization of IL17A in HT-29 assay, rel. IC50* (IC50, secukinumab/IC50, Test Sample) [1] | Potency in HT-29 assay, IC50 [ng/mL] [1] | Potency in HT-29 assay, rel. IC50* (IC50, secukinumab/IC50, Test Sample) [1] | Kd [2] | koff [2] | kon [2] | IC50 [3] | Kd [4] | koff [4] | kon [4] | rel. IC50 (IC50, secukinumab/IC50, Test Sample) [5]
1 | B1 | 196 | 0.13 ng/mL | 196 | 0.0376 nM | 4.07e-05 s⁻¹ | 1.08e+06 M⁻¹ s⁻¹ | 0.9 ng/mL | 0.367 nM | 0.000142 s⁻¹ | 387000 M⁻¹ s⁻¹ | 40.9
2 | B2 | 191 | 0.1 ng/mL | 191 | 0.0403 nM | 4.55e-05 s⁻¹ | 1.13e+06 M⁻¹ s⁻¹ | 1.8 ng/mL | 0.119 nM | 0.000144 s⁻¹ | 1.21e+06 M⁻¹ s⁻¹ | 22.9
